Values belong to the binder of their own block, whether it stands above or below them.
How the values were obtained:
[1] = target: T1, MET928.6H (hexahistine tagged MET928) (human, UniProt P08581 25-928); assay: plate binding assay: 100 nM MET928.6H added to NK1-coated microplate, bound MET detected with anti-5xHis and DELFIA Eu-N1 anti-mouse IgG (time-resolved fluorescence) [right panel]
T1 construct: also called MET ectodomain; not shown: hexahistidine tag
Protocol: FAb at 5-500 nM (FIG. 8) was mixed with 100 nM MET928.6H (hexahistine tagged MET928) and the mixture incubated at room temperature for one hour, prior to addition of the MET928.6H/FAb mixture to microplates coated with HGF/SF or the fragment NK1 and a further one-hour incubation. Bound MET928.6H was then detected with anti-5xHis (Qiagen) followed by DELFIA® Eu-N1 rabbit anti-mouse-IgG, exposure to DELFIA® enhancement solution and quantitation by time-resolved fluorescence on a Fusion instrument (Perkin Elmer).

[2] = target: T2, MET928 (cMET protein derived from construct 25-928) (human, UniProt P08581 25-928); assay: SPR (Biacore), CM5 chip coated with MET928
T2 construct: MET ectodomain, residues 1-24 are the leader; produced in Lec 8 cells; background text says the ectodomain is furin-cleaved into alpha (25-307) and beta chains; biotinylated form used in selections; also called MET928 extracellular domain; Met extracellular domain

[3] = target: T2, MET928 (cMET protein derived from …); assay: Biacore SPR
[4] = target: T3, MET567 (MET extracellular domain aa 25-567) (human, UniProt P08581 25-567); assay: analytical size exclusion chromatography (Superdex 200 10/300) [Cont.]
T3 construct: beta-propeller + cystine-rich domain
Protocol: Epitope location was analysed by analytical size exclusion chromatography. […] The mixtures were then centrifuged to remove any debris and analysed on a Superdex 200 10/300 size exclusion column (GE Life Sciences).

[5] = target: T2, MET928 (cMET protein derived from …); assay: Biacore SPR, MET928-coated surface, 1:1 kinetic analysis
From the text: In FIG. 15, “hinged” His-tagged, IMAC-purified Fabs were used.

[6] = target: T2, MET928 (cMET protein derived from …); assay: Biacore SPR, MET928-coated surface
From the text: Since scFv can multimerise, possibly complicating analysis, we also analysed the biological activity of monomeric 7A2 scFv. 8×His-tagged 7A2 scFv (Table 14) was expressed in P. pastoris induced with Methanol over 3 days. Conditioned media was concentrated using a Sartorius Slice Disposable (10 kD nominal molecular weight cut-off) and the scFv purified on a HisTrap column (GE Life Sciences). Monomeric 7A2 scFv (FIG. 11) was isolated by size exclusion using a Superdex 200 16/60 prep grade column (GE Life Sciences).

T2 sequence (P08581 25-928): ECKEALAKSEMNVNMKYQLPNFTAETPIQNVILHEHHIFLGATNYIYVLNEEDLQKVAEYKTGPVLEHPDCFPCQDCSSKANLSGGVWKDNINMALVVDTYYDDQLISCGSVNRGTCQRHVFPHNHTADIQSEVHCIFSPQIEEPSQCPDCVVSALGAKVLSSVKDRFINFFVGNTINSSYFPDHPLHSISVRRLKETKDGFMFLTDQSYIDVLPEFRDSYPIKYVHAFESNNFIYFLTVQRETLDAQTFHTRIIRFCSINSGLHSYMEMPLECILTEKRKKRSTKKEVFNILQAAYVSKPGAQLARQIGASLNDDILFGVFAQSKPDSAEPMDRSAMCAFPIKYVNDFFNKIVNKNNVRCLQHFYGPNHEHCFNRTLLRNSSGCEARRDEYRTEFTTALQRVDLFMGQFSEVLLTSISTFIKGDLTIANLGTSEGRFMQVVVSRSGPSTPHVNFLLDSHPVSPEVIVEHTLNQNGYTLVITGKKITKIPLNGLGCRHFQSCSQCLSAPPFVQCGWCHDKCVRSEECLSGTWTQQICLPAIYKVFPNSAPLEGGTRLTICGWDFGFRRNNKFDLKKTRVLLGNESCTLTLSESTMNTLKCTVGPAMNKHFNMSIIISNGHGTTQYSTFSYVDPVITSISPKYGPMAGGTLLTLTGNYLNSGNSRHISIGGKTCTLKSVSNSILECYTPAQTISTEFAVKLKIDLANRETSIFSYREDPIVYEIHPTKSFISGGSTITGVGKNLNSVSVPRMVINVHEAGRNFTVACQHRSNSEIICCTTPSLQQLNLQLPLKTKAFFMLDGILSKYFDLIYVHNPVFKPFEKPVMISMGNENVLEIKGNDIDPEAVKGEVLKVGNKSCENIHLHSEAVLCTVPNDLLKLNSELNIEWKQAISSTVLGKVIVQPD
T3 sequence (P08581 25-567): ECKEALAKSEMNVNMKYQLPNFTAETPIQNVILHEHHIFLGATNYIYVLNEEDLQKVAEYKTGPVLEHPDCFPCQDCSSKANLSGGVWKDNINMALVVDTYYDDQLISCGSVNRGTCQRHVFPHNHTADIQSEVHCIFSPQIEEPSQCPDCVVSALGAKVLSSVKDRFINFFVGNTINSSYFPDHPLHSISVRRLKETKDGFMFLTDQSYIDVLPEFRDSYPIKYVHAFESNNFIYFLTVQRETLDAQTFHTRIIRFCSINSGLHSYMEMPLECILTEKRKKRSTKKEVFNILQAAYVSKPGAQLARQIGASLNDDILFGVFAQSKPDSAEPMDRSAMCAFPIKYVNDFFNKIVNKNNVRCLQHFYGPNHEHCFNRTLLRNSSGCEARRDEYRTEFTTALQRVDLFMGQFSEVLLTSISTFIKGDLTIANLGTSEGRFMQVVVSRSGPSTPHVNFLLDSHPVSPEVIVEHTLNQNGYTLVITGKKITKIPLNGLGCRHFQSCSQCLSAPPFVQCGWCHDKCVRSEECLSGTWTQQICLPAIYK
T1 sequence (P08581 25-928): as the sequence (P08581 25-928) above

B1: NK1 fragment of HGF/SF (produced in Pichia pastoris) (ligand)
chain: EAEAYVEGQRKRRNTIHEFKKSAKTTLIKIDPALKIKTKKVNTADQCADRCTRNKGLPFTCKAFVFDKARKQCLWFPFNSMSSGVKKEFGHEFDLYENKDYIRNCIIGKGRSYKGTVSITKSGIKCQPWSSMIPHEHSFLPSSYRGKDLQENYCRNPRGEEGGPWCFTSNPEVRYEVCDIPQCSEVE
notes: The first two (EA) or four (EAEA) amino acids may be removed during processing; also called NK1.B1; NK1.B2
binding result [1]: binds | binding result [2]: binds

B2: 7A2 Fab (tagless, hinged) (Fab, V domains shown)
VH: QMQLVQSGAEVKKPGAPVKVSCKVSGYTFTDYYMHWVQQAPGKGLEWMGLVDPEDGETIYAEKFQGRVTITADTSTDTAYMELSSLRSEDTAVYYCATDATTPYYGMDVWGQGTLVTVSS
VL: DIQMTQSPSSLSASVGDRVTITCQASQDISNYLNWYQQKPGRAPKVLIYDASNLETGVPSRFSGSGSGTEFTLTISNLRPDDFATYYCQQGDSFPLTFGGGTKVEIKR
notes: Purified on KappaSelect; also called Tagless 7A2
Kd [3]: 181 nM | koff [3]: 0.108 s⁻¹ | kon [3]: 597000 M⁻¹ s⁻¹ | binding result [4]: no binding (tested: 6 µM Fab with 4 µM MET567)

The next lines start with results.

Kd [5]: 4.2 nM | koff [5]: 0.0075 s⁻¹ | kon [5]: 1.8e+06 M⁻¹ s⁻¹
B3: 107_A07 Fab (tagless, native, i.e. not hinged) (Fab, V domains shown)
VH: QMQLVQSGAEVKKPGAPVKVSCKVSGYTFTDYYMHWVQQAPGKGLEWMGLVDPEDGETIYAEKFQGRVTITADTSTDTAYMELSSLRSEDTAVYYCATDATTPYWGMMWWGQGTLVTVSS
VL: DIQMTQSPSSLSASVGDRVTITCQASQDISNYLNWYQQKPGRAPKVLIYDASNLETGVPSRFSGSGSGTEFTLTISNLRPDDFATYYCQQGDSFPLTFGGGTKVEIKR
binding result [4]: no binding (tested: 6 µM Fab with 4 µM MET567)

Kd [6]: 3.62 nM | koff [6]: 0.00212 s⁻¹ | kon [6]: 586000 M⁻¹ s⁻¹
B4: monomeric 7A2 scFv (8xHis-tagged, expressed in P. pastoris) (scFv)
scFv: EAEAQMQLVQSGAEVKKPGAPVKVSCKVSGYTFTDYYMHWVQQAPGKGLEWMGLVDPEDGETIYAEKFQGRVTITADTSTDTAYMELSSLRSEDTAVYYCATDATTPYYGMDVWGQGTLVTVSSLEGGGGSGGGGSGGGASDIQMTQSPSSLSASVGDRVTITCQASQDISNYLNWYQQKPGRAPKVLIYDASNLETGVPSRFSGSGSGTEFTLTISNLRPDDFATYYCQQGDSFPLTFGGGTKVEIKRPRHHHHHHHH
notes: Monomer isolated by size exclusion chromatography

— patent US20150147274A1 (CANCER RESEARCH TECHNOLOGY, published 2015)
